Measured values as given in publication PMC7664366 (Redox Biology, 2020).

Target: His-tagged human Rac1 recombinant protein (human, UniProt P63000 1-192)
Experiment: MALDI MS, linear mode acquisition

Row | Binder | binding result
1 | HRKKRRQRRRQFPGEYIPTVF [NipR2 (nitration inhibitory peptide for the Rho GTPases 2)] | binds
2 | HRKKRRQRRRQFPGEFIPTVF [NipR2F (phenylalanine-substituted control peptide)] | binds
